Test results taken from paper PMC8059062 (The Journal of Biological Chemistry, 2021).
Ends that are not written are not given here.

B1: NaV1.2CTD (fragment of the NaV1.2 C-terminal domain, residues 1777-1937, with EFL and IQ motif) (domain or fragment, human)
chain: GPGSENFSVATEESAEPLSEDDFEMFYEVWEKFDPDATQFIEFAKLSDFADALDPPLLIAKPNKVQLIAMDLPMVSGDRIHCLDILFAFTKRVLGESGEMDALRIQMEERFMASNPSKVSYEPITTTLKRKQEEVSAIIIQRAYRRYLLKQKVKKVSSIYKKDKG
notes: four nonnative residues left at the N terminus after removal of the His-GST tag with 3C protease; human NaV1.2 (SCN2A) C-terminal domain fragment, aa 1777-1937, contains the EF-hand like domain and the IQ motif; source: bacterial coexpression with CaM, copurified; not shown: His-GST, N-terminal, cleaved
B2: FGF11A_(CaMBD) biosensor (FGF11A CaMBD, residues 36-62, between YFP and CFP) (domain or fragment)
chain: KSLCQKQLLILLSKVRLCGGRPARPDR
modifications: cysteine pairing not given here; also: fused between YFP and CFP
notes: source: expressed from a pET21B vector
B3: FGF13A_(CaMBD) biosensor (FGF13A CaMBD, residues 35-60, between YFP and CFP) (domain or fragment)
chain: KTSCDKNKLNVFSRVKLFGSKKRRRR
modifications: also: fused between YFP and CFP
notes: as for B2
B4: FGF12ALTP biosensor (FGF12A LTP, residues 1-23, between YFP and CFP) (domain or fragment)
chain: MAAAIASSLIRQKRQARESNSDR
notes: as for B2
B5: FGF12ANTD (FGF12A N-terminal domain, aa 1-70) (domain or fragment)
chain: GPGSMAAAIASSLIRQKRQARESNSDRVSASKRRSSPSKDGRSLCERHVLGVFSKVRFCSGRKRPVRRRPEPQL
notes: four nonnative residues left at the N terminus after removal of the His-GST tag with 3C protease; human FGF12A N-terminal domain, aa 1-70, contains LTP and CaMBD; 15N-labelled in some NMR samples; source: bacterial coexpression with CaM, copurified; not shown: His-GST, N-terminal, cleaved
B6: FGF12A_(CaMBD) biosensor (FGF12A CaMBD, residues 38-64, between YFP and CFP) (domain or fragment)
chain: RSLCERHVLGVFSKVRFCSGRKRPVRR
modifications: cysteine pairing not given here; also: fused between YFP and CFP
notes: as for B2
B7: NaV1.2 IQ motif (domain or fragment)
chain: EEVSAIIIQRAYRRYLLKQKVKKVSSIYKK
notes: IQ motif of NaV1.2; also called IQ motif of NaV1.2

Key:
[1] = target: T1, full-length FGF12A (aa 1-243) (human, UniProt P61328-1 1-243); test: co-purification after refolding; denatured His-GST-FGF12A refolded by rapid dilution at 4 C into buffer with CaM+NaV1.2CTD (0.2 uM); tag cleaved, nickel resin repass, anion exchange (pH 8.5-7.4, KCl 0-300 mM) removes CaM; settings: both partners purified
T1 construct: four nonnative residues left at the N terminus after removal of the His-GST tag with 3C protease; human FGF12A (A-type splice variant of FGF12), full-length, aa 1-243; Obtained only as the FGF12A+NaV1.2CTD complex; not shown: His-GST, N-terminal, cleaved
T1 sequence: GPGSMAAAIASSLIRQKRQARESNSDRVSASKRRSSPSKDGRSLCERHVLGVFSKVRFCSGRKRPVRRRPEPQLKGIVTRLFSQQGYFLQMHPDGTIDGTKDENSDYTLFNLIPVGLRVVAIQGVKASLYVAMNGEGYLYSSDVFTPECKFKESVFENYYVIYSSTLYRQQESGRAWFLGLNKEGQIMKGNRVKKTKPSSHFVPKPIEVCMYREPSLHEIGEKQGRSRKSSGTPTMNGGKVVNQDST

[2] = target: T2, calmodulin, wild type, full-length (aa 1-148) (human, UniProt P0DP23 1-149); test: other fluorescence titration; YFP-CFP FRET biosensor (>=1 nM) with Ca2+-saturated WT or mutant CaM, emission spectra and equilibrium titrations; 50 mM HEPES, 100 mM KCl, 1 mM MgCl2, 50 uM EGTA, 5 mM NTA, 1.5 uM BSA, 500 uM DTT, 1 mM CaCl2, pH 7.4, 22 C
T2 construct: human calmodulin, full-length, aa 1-148; numbers count on: the protein without the initial Met (UniProt numbers are one higher); Ca2+-saturated ((Ca2+)4-CaM) and Ca2+-depleted (apo) states are the same molecule; the state is told by the assay; 15N-labelled in some NMR samples; also called CaM; WT CaM; source: bacterially overexpressed (pT7-7 vector) and purified; also bacterially coexpressed with …

[3] = target: T2, calmodulin, wild type, full-length (aa …); test: NMR 15N-HSQC chemical shift comparison; copurified 1:1 complexes, one partner 15N-labelled (290-600 uM), compared with isolated (Ca2+)2-CaMN and (Ca2+)2-CaMC and with each other; 50 mM HEPES, 100 mM KCl, 1 mM MgCl2, 50 uM EGTA, 5 mM NTA, 10 mM CaCl2, pH 7.4, 25 C; settings: both partners purified
[4] = target: T2, calmodulin, wild type, full-length (aa …); test: not stated; (Ca2+)4-CaM binding to NaV IQ motifs; data not shown

Binder	Kd [2]	other results
B1		binding result [1]: binds
B2	0.019 µM	
B3	0.013 µM	
B4	0.576 µM	
B5		binding result [3]: binds
B6	0.107 µM	
B7		Kd [4]: 0.0198 µM
